B1: Galactose-1-phosphate uridylyltransferase (Homo sapiens), P07902 (parent)
chain: MSRSGTDPQQRQQASEADAAAATFRANDHQHIRYNPLQDEWVLVSAHRMKRPWQGQVEPQLLKTVPRHDPLNPLCPGAIRANGEVNPQYDSTFLFDNDFPALQPDAPSPGPSDHPLFQAKSARGVCKVMCFHPWSDVTLPLMSVPEIRAVVDAWASVTEELGAQYPWVQIFENKGAMMGCSNPHPHCQVWASSFLPDIAQREERSQQAYKSQHGEPLLMEYSRQELLRKERLVLTSEHWLVLVPFWATWPYQTLLLPRRHVRRLPELTPAERDDLASIMKKLLTKYDNLFETSFPYSMGWHGAPTGSEAGANWNHWQLHAHYYPPLLRSATVRKFMVGYEMLAQAQRDLTPEQAAERLRALPEVHYHLGQKDRETATIA
B2: AMP deaminase 3 (Homo sapiens), Q01432 (parent)
chain: MPRQFPKLNISEVDEQVRLLAEKVFAKVLREEDSKDALSLFTVPEDCPIGQKEAKERELQKELAEQKSVETAKRKKSFKMIRSQSLSLQMPPQQDWKGPPAASPAMSPTTPVVTGATSLPTPAPYAMPEFQRVTISGDYCAGITLEDYEQAAKSLAKALMIREKYARLAYHRFPRITSQYLGHPRADTAPPEEGLPDFHPPPLPQEDPYCLDDAPPNLDYLVHMQGGILFVYDNKKMLEHQEPHSLPYPDLETYTVDMSHILALITDGPTKTYCHRRLNFLESKFSLHEMLNEMSEFKELKSNPHRDFYNVRKVDTHIHAAACMNQKHLLRFIKHTYQTEPDRTVAEKRGRKITLRQVFDGLHMDPYDLTVDSLDVHAGRQTFHRFDKFNSKYNPVGASELRDLYLKTENYLGGEYFARMVKEVARELEESKYQYSEPRLSIYGRSPEEWPNLAYWFIQHKVYSPNMRWIIQVPRIYDIFRSKKLLPNFGKMLENIFLPLFKATINPQDHRELHLFLKYVTGFDSVDDESKHSDHMFSDKSPNPDVWTSEQNPPYSYYLYYMYANIMVLNNLRRERGLSTFLFRPHCGEAGSITHLVSAFLTADNISHGLLLKKSPVLQYLYYLAQIPIAMSPLSNNSLFLEYSKNPLREFLHKGLHVSLSTDDPMQFHYTKEALMEEYAIAAQVWKLSTCDLCEIARNSVLQSGLSHQEKQKFLGQNYYKEGPEGNDIRKTNVAQIRMAFRYETLCNELSFLSDAMKSEEITALTN
B3: Inhibin alpha chain (Homo sapiens), P05111 (parent)
chain: MVLHLLLFLLLTPQGGHSCQGLELARELVLAKVRALFLDALGPPAVTREGGDPGVRRLPRRHALGGFTHRGSEPEEEEDVSQAILFPATDASCEDKSAARGLAQEAEEGLFRYMFRPSQHTRSRQVTSAQLWFHTGLDRQGTAASNSSEPLLGLLALSPGGPVAVPMSLGHAPPHWAVLHLATSALSLLTHPVLVLLLRCPLCTCSARPEATPFLVAHTRTRPPSGGERARRSTPLMSWPWSPSALRLLQRPPEEPAAHANCHRVALNISFQELGWERWIVYPPSFIFHYCHGGCGLHIPPNLSLPVPGAPPTPAQPYSLLPGAQPCCAALPGTMRPLHVRTTSDGGYSFKYETVPNLLTQHCACI
partner: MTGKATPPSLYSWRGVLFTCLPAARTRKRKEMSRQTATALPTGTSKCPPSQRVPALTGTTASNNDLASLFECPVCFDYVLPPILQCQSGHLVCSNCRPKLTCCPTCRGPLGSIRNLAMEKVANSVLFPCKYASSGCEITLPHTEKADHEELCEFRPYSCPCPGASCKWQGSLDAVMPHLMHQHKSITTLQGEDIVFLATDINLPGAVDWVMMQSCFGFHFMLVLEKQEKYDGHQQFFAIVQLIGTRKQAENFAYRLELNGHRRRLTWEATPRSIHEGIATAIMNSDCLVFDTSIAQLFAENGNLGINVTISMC
B4: U4/U6 small nuclear ribonucleoprotein Prp31 (Homo sapiens), Q8WWY3 (parent)
chain: MSLADELLADLEEAAEEEEGGSYGEEEEEPAIEDVQEETQLDLSGDSVKTIAKLWDSKMFAEIMMKIEEYISKQAKASEVMGPVEAAPEYRVIVDANNLTVEIENELNIIHKFIRDKYSKRFPELESLVPNALDYIRTVKELGNSLDKCKNNENLQQILTNATIMVVSVTASTTQGQQLSEEELERLEEACDMALELNASKHRIYEYVESRMSFIAPNLSIIIGASTAAKIMGVAGGLTNLSKMPACNIMLLGAQRKTLSGFSSTSVLPHTGYIYHSDIVQSLPPDLRRKAARLVAAKCTLAARVDSFHESTEGKVGYELKDEIERKFDKWQEPPPVKQVKPLPAPLDGQRKKRGGRRYRKMKERLGLTEIRKQANRMSFGEIEEDAYQEDLGFSLGHLGKSGSGRVRQTQVNEATKARISKTLQRTLQKQSVVYGGKSTIRDRSSGTASSVAFTPLQGLEIVNPQAAEKKVAEANQKYFSSMAEFLKVKGEKSGLMST
partner: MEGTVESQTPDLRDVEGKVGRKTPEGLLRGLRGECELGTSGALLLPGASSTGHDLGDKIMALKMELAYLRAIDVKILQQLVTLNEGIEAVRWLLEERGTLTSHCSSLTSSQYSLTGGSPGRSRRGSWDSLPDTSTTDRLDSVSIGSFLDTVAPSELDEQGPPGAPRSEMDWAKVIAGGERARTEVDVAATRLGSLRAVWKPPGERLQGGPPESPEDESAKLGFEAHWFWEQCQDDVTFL
B5: Tribbles homolog 3 (Homo sapiens), Q96RU7 (parent)
chain: MRATPLAAPAGSLSRKKRLELDDNLDTERPVQKRARSGPQPRLPPCLLPLSPPTAPDRATAVATASRLGPYVLLEPEEGGRAYQALHCPTGTEYTCKVYPVQEALAVLEPYARLPPHKHVARPTEVLAGTQLLYAFFTRTHGDMHSLVRSRHRIPEPEAAVLFRQMATALAHCHQHGLVLRDLKLCRFVFADRERKKLVLENLEDSCVLTGPDDSLWDKHACPAYVGPEILSSRASYSGKAADVWSLGVALFTMLAGHYPFQDSEPVLLFGKIRRGAYALPAGLSAPARCLVRCLLRREPAERLTATGILLHPWLRQDPMPLAPTRSHLWEAAQVVPDGLGLDEAREEEGDREVVLYG
partner: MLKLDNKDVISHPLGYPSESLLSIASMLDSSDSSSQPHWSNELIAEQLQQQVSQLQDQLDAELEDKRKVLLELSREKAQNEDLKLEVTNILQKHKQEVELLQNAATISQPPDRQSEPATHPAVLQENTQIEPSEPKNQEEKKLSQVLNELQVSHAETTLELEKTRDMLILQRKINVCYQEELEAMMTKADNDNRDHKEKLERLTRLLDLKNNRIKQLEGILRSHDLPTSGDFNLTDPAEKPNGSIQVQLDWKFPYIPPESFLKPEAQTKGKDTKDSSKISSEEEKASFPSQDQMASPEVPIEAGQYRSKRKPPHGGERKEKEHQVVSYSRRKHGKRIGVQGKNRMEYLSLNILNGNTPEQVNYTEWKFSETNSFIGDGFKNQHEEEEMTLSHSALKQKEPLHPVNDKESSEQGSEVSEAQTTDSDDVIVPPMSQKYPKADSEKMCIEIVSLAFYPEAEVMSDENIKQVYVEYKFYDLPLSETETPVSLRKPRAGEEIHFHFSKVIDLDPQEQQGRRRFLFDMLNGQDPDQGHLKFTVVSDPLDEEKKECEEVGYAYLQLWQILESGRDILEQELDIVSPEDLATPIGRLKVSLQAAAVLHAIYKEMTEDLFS
B6: Casein kinase I isoform epsilon (Homo sapiens), P49674 (parent)
chain: MELRVGNKYRLGRKIGSGSFGDIYLGANIASGEEVAIKLECVKTKHPQLHIESKFYKMMQGGVGIPSIKWCGAEGDYNVMVMELLGPSLEDLFNFCSRKFSLKTVLLLADQMISRIEYIHSKNFIHRDVKPDNFLMGLGKKGNLVYIIDFGLAKKYRDARTHQHIPYRENKNLTGTARYASINTHLGIEQSRRDDLESLGYVLMYFNLGSLPWQGLKAATKRQKYERISEKKMSTPIEVLCKGYPSEFSTYLNFCRSLRFDDKPDYSYLRQLFRNLFHRQGFSYDYVFDWNMLKFGAARNPEDVDRERREHEREERMGQLRGSATRALPPGPPTGATANRLRSAAEPVASTPASRIQPAGNTSPRAISRVDRERKVSMRLHRGAPANVSSSDLTGRQEVSRIPASQTSVPFDHLGK
partner: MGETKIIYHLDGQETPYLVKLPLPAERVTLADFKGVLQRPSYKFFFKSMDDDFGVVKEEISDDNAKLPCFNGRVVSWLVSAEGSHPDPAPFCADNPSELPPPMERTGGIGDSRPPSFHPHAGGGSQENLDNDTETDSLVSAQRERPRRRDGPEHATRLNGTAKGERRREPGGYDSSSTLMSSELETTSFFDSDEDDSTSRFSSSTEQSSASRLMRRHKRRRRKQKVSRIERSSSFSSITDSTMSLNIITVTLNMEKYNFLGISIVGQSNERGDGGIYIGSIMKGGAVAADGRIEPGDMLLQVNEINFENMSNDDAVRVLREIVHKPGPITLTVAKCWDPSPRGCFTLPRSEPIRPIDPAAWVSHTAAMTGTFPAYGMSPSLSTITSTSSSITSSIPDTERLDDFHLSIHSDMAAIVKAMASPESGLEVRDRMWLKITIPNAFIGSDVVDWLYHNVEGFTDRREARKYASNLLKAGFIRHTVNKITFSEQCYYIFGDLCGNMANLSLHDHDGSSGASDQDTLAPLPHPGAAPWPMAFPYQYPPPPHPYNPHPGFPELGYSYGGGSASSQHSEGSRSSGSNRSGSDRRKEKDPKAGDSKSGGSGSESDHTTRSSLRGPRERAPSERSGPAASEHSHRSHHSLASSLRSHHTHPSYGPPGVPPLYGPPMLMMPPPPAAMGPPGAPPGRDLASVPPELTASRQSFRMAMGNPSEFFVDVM
B7: Acetylcholine receptor subunit gamma (Homo sapiens), P07510-2 (parent)
chain: MHGGQGPLLLLLLLAVCLGAQGRNQEERLLADLMQNYDPNLRPAERDSDVVNVSLKLTLTNLISLNEREEALTTNVWIEMQWCDYRLRWDPRDYEGLWVLRVPSTMVWRPDIVLENKSQTYSTNEIDLQLSQEDGQTIEWIFIDPEAFTENGEWAIQHRPAKMLLDPAAPAQEAGHQKVVFYLLIQRKPLFYVINIIAPCVLISSVAILIHFLPAKAGGQKCTVAINVLLAQTVFLFLVAKKVPETSQAVPLISKYLTFLLVVTILIVVNAVVVLNVSLRSPHTHSMARGVRKVFLRLLPQLLRMHVRPLAPAAVQDTQSRLQNGSSGWSITTGEEVALCLPRSELLFQQWQRQGLVAAALEKLEKGPELGLSQFCGSLKQAAPAIQACVEACNLIACARHQQSHFDNGNEEWFLVGRVLDRVCFLAMLSLFICGTAGIFLMAHYNRVPALPFPGDPRPYLPSPD
partner: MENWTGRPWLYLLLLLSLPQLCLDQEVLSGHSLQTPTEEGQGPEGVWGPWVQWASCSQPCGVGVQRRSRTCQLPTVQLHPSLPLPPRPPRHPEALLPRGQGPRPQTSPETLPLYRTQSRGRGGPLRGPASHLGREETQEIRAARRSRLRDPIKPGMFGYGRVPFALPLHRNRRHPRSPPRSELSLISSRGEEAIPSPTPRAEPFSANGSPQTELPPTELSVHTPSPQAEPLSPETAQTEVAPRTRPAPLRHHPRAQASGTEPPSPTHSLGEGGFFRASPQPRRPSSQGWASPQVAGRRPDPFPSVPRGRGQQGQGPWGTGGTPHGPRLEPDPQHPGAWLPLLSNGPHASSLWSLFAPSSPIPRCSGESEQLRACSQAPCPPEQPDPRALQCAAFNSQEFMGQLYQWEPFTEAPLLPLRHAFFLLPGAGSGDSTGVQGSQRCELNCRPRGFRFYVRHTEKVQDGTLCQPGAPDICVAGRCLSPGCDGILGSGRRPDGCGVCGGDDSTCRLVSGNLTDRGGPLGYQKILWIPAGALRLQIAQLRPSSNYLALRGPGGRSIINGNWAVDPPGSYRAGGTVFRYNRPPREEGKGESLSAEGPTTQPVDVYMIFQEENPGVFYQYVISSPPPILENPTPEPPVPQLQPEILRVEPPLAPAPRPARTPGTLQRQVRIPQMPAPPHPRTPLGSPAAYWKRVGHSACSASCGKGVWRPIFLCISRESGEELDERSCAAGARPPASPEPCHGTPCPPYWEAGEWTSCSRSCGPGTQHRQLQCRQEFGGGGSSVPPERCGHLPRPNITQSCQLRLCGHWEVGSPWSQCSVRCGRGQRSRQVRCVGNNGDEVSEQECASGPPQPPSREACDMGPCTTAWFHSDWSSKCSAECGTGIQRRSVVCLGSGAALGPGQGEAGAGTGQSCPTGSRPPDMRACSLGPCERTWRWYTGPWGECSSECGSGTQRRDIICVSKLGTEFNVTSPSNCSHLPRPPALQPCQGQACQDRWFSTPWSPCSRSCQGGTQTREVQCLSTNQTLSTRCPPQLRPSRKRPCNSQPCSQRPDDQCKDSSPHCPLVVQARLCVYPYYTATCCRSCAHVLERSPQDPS

Variants of: B1
Conditions: with TNK2, Q07912-2
Sequence of TNK2, Q07912-2 (Q07912 other isoform, or with tags, fused parts or gaps): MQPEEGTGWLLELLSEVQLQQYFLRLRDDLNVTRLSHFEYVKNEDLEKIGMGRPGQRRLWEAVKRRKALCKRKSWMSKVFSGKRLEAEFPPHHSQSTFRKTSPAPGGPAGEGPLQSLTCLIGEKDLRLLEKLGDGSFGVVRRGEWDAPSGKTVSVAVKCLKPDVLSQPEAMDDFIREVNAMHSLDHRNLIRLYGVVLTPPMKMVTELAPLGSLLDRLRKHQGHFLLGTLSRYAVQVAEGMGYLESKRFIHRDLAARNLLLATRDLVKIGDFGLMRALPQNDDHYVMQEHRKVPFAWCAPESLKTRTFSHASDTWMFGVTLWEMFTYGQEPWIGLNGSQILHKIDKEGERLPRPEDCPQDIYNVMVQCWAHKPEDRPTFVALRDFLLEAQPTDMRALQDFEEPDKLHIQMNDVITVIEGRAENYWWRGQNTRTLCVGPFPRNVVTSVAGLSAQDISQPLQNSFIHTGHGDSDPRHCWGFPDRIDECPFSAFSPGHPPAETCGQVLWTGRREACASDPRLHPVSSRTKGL

Row | effect of a mutation on the interaction | Variant
1 | with no effect | R272H
2 | with no effect | H319Q
3 | with no effect | G175D

Variants of: B2
Conditions: with hs90b_human HSP90AB1, P08238
Sequence of hs90b_human HSP90AB1, P08238 (P08238 whole entry): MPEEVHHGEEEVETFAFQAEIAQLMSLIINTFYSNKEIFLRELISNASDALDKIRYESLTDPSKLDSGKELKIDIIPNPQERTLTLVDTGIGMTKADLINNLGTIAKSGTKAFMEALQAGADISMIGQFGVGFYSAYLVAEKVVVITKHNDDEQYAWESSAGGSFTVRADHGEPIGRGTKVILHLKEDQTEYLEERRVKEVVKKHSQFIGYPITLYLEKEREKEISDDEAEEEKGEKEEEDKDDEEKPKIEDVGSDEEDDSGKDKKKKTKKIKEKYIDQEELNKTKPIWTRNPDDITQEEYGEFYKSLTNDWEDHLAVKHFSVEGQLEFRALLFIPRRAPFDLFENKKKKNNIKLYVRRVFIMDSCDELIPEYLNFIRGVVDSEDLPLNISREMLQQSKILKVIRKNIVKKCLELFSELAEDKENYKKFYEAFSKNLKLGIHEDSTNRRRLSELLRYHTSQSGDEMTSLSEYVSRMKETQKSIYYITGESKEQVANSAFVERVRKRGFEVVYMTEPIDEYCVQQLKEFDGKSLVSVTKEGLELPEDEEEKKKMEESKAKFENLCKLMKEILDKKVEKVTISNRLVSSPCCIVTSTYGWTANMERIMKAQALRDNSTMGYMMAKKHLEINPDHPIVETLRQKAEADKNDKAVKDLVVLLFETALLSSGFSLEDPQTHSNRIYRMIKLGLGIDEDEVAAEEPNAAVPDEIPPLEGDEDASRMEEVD

Row | effect of a mutation on the interaction | Variant
4 | increasing interaction strength | A320V
5 | increasing interaction strength | W450R

Variants of: B3
Conditions: with SIAH1, Q8IUQ4-2

Row | effect of a mutation on the interaction | Variant
6 | with no effect | A182D
7 | with no effect | P43A
8 | with no effect | A257T

Variants of: B4
Conditions: with lura1_human LURAP1, Q96LR2

Row | effect of a mutation on the interaction | Variant
9 | with no effect | L107V

Variants of: B5
Conditions: with RPGRIP1, Q96KN7-4

Row | effect of a mutation on the interaction | Variant
10 | with no effect | Q84R

Variants of: B6
Conditions: with dvl3_human DVL3, Q92997

Row | effect of a mutation on the interaction | Variant
11 | disrupting interaction strength | S408N

Variants of: B7
Conditions: with ADAMTSL4, Q6UY14-3

Row | effect of a mutation on the interaction | Variant
12 | disrupting interaction strength | R187C
13 | disrupting interaction strength | R86C
14 | disrupting interaction strength | V107G

From IntAct's records for PubMed 25910212
